Measurements as given in publication PMC6458161 (2019).

How the values were obtained:
[1] = system: ATDNA (DNA, duplex) GCAAATTTGC; assay: ITC, one set of sites fit; details: Na+ 100 mM (from the 10 mM Hepes/100 mM NaCl UV and gel buffer; the ITC buffer is only given as Hepes buffer), 25 °C, 200 µM EtBr titrated into 10 µM DNA (strand concentration)
[2] = system: GCDNA (DNA, duplex) GCGCGCGCGC; assay: ITC, one set of sites fit; details: Na+ 100 mM (from the 10 mM Hepes/100 mM NaCl UV and gel buffer; the ITC buffer is only given as Hepes buffer), 25 °C, 500 µM EtBr titrated into 10 µM DNA (strand concentration)
[3] = system: GCDNA (DNA, duplex) GCGCGCGCGC; assay: ITC; details: Hepes buffer, 25 °C; 200 µM Net titrated into 10 µM DNA (strand concentration)
[4] = system: protamine (sulfate salt) (salmon); assay: ITC; details: ITC in Hepes buffer, 25 C (salt and pH not given in the material), short duplexes 10 uM (strand concentration), protamine 100 uM
[5] = 20 uM ethidium bromide (EtBr-bound DNA)

Q: Which KA [1] does the source give for `CC[n+]1c(-c2ccccc2)c2cc(N)ccc2c2ccc(N)cc21` here?
A: 165000 M⁻¹

Q: And the KA [2]?
A: 145000 M⁻¹

Q: `Cn1cc(NC(=O)c2cc(NC(=O)CN=C(N)N)cn2C)cc1C(=O)NCCC(=N)N` was tested. Which binding [3] did it give?
A: no

Q: CTDNA (calf thymus DNA) was tested. Which Ka ([4]; 60 uM ethidium bromide (EtBr-bound DNA)) did it give?
A: 6.36e+07 M⁻¹

Q: What about the Ka ([4]; 60 uM netropsin (Net-bound DNA)) of the same molecule?
A: 5.54e+07 M⁻¹

Q: What about the Ka ([4]; no drug, CTDNA titrated into protamine) of the same molecule?
A: 550000 M⁻¹

Q: Which Ka [4, 5] does the source give for GCAAATTTGC (double strand) [ATDNA] here?
A: 3.9e+06 M⁻¹

Q: What about the Ka ([4]; 20 uM netropsin (Net-bound DNA)) of the same molecule?
A: 1.89e+08 M⁻¹

Q: And the Ka ([4]; no drug)?
A: 1.4e+08 M⁻¹

Q: With GCGCGCGCGC (double strand) [GCDNA] as the molecule, how does the Ka [4, 5] read?
A: 4.5e+06 M⁻¹

Q: And the Ka ([4]; 20 uM netropsin)?
A: 4.5e+07 M⁻¹

Q: What about the Ka ([4]; no drug) of the same molecule?
A: 3.4e+07 M⁻¹
